Article PMC8421406, “C9orf72-derived arginine-rich poly-dipeptides impede phase modifiers” (Nature Communications, 2021)

Experiments:
Conditions in all cases: both partners purified
[1] = molecular target: T1, mCh:FUS-LC (mCherry fusion LC-domain of FUS, residue 2–214), as hydrogel (UniProt P35637 2-214); experiment: hydrogel binding assay; 1 µM purified GFP-fused protein pipetted onto hydrogel droplets of the mCherry-fused LC-domain, overnight, confocal microscopy; ± Kapβ2 (0.1, 0.3, 1.0 µM) ± PR20; 20 mM Tris-HCl pH 7.5, 150 mM NaCl, 20 mM β-mercaptoethanol, 0.1 mM PMSF, 0.5 mM EDTA
T1 construct: fused in sarcoma (FUS), LC-domain, residue 2–214; Polymerised in the hydrogel; plasmid from the Steven L. McKnight Laboratory; source: E. coli BL21(DE3), purified (Ni-NTA Agarose), prepared as hydrogel droplets; not shown: mCherry, N-terminal, kept
T1 sequence (looked up): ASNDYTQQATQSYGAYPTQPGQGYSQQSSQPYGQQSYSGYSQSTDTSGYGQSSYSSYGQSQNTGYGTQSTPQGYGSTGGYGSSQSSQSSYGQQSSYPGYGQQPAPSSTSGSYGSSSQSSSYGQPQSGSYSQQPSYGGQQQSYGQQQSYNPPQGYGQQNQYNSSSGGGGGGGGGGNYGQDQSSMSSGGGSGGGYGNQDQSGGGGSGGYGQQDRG

[2] = molecular target: T2, Kapβ2 (ΔLoop, residues 321–371 were replaced with GGSGGSGS linker) (UniProt Q92973-2 1-320; Q92973-2 372-890); experiment: ITC; 200 μM MBP:PR18 titrated into 20 μM Kapβ2 (ΔLoop) in the cell; 25 °C; 20 mM HEPES pH 7.4, 150 mM NaCl, 10% glycerol, 2 mM β-mercaptoethanol; 19 injections of 2 μL
T2 construct: karyopherin-β2 (Kapβ2), the part before the loop, up to residue 320; linker that replaces residues 321–371; karyopherin-β2 (Kapβ2), the part after the loop, from residue 372; source: E. coli BL21(DE3), purified; not shown: GST, N-terminal, cleaved
T2 chain: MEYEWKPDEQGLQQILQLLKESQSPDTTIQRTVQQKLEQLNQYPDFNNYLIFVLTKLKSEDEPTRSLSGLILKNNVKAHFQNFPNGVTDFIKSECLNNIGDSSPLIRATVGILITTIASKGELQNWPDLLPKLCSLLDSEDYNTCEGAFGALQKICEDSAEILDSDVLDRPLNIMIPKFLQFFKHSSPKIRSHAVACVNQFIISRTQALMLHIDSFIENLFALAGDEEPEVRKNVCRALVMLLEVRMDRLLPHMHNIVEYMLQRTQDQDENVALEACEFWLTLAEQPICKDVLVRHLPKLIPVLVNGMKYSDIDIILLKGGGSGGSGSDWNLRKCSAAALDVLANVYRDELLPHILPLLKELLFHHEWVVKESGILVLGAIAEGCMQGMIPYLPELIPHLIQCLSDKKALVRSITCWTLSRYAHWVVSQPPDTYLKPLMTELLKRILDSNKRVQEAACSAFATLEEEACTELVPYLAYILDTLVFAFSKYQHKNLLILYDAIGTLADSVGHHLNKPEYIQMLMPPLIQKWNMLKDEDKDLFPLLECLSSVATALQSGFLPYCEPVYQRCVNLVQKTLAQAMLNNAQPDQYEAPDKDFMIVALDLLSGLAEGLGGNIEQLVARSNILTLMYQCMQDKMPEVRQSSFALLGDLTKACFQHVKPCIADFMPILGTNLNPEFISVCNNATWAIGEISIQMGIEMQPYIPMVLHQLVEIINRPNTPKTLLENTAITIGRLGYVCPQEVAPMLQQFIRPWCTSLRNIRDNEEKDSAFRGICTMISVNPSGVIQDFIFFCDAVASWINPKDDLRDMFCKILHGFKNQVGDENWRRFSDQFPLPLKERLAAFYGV

karyopherin-β2 (Kapβ2) = molecular target: T3, karyopherin-β2 (Kapβ2) (UniProt Q92973 1-898, for NMR: [U-2H; Ile-δ1-13CH3; Leu, Val-13CH3/12CH3]-labeled); experiment: SEC-MALS; Superdex200 10/300 GL; 28 µM Kapβ2 injected in the absence and presence of 55 µM MBP:PR18; 20 mM HEPES pH 7.4, 150 mM NaCl, 2 mM MgCl2, 10% glycerol, 2 mM β-mercaptoethanol
T3 construct: karyopherin-β2 (Kapβ2), nuclear import receptor; Expressed as GST fusion from pGEX6P-1; also called isotopically labeled Kapβ2; source: E. coli BL21(DE3), purified (GSH Sepharose, HRV3C cleavage, anion exchange, gel filtration); not shown: GST, N-terminal, cleaved
T3 sequence (looked up): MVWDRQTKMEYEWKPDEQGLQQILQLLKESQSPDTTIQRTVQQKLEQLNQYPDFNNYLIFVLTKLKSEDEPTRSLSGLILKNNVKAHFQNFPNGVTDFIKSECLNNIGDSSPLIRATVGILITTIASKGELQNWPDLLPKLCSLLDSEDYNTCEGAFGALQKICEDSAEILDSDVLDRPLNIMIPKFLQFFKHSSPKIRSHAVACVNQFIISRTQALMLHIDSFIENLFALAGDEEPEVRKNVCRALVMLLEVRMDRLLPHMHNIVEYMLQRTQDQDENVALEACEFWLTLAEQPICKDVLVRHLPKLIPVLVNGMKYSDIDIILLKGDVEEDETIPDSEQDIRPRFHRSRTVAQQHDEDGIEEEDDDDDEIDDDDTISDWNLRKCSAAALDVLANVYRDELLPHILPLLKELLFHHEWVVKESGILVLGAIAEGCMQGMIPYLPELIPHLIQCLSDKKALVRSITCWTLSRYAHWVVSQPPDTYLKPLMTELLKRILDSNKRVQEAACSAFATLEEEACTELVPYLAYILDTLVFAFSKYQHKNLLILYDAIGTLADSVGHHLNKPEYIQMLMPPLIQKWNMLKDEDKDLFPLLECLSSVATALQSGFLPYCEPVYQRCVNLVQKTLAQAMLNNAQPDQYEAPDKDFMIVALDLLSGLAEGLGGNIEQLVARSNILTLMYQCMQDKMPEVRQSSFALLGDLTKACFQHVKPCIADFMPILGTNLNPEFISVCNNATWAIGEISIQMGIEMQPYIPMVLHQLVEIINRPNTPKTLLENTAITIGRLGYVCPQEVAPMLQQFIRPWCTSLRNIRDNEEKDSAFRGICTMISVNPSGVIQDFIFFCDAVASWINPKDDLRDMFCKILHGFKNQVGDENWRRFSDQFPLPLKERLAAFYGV

Row | binding result [1] | Kd [2] [nM] | stoichiometry N (karyopherin-β2 (Kapβ2)) | Binder
1 | binds | – | – | GFP:FUS-LC (green fluorescent protein fusion LC-domain of FUS, residue 2–214) (domain or fragment, UniProt P35637 2-214, looked up, fused in sarcoma (FUS), LC-domain, residue 2–214; Plasmid from the Steven L. McKnight Laboratory; source: E. coli BL21(DE3), purified (Ni-NTA Agarose); not shown: GFP, N-terminal, kept) ASNDYTQQATQSYGAYPTQPGQGYSQQSSQPYGQQSYSGYSQSTDTSGYGQSSYSSYGQSQNTGYGTQSTPQGYGSTGGYGSSQSSQSSYGQQSSYPGYGQQPAPSSTSGSYGSSSQSSSYGQPQSGSYSQQPSYGGQQQSYGQQQSYNPPQGYGQQNQYNSSSGGGGGGGGGGNYGQDQSSMSSGGGSGGGYGNQDQSGGGGSGGYGQQDRG
2 | binds | – | – | GFP:FUS-LC:NLS (GFP:FUS-LC fusion FUS-NLS, 501–526) (domain or fragment, UniProt P35637 2-214, looked up, fused in sarcoma (FUS), LC-domain, residue 2–214; fused in sarcoma (FUS), NLS, residue 501–526; Built with the In-Fusion HD Cloning Kit; also called FUS-LC fusion NLS; source: E. coli BL21(DE3), purified (Ni-NTA Agarose); not shown: GFP, N-terminal, kept) ASNDYTQQATQSYGAYPTQPGQGYSQQSSQPYGQQSYSGYSQSTDTSGYGQSSYSSYGQSQNTGYGTQSTPQGYGSTGGYGSSQSSQSSYGQQSSYPGYGQQPAPSSTSGSYGSSSQSSSYGQPQSGSYSQQPSYGGQQQSYGQQQSYNPPQGYGQQNQYNSSSGGGGGGGGGGNYGQDQSSMSSGGGSGGGYGNQDQSGGGGSGGYGQQDRGGDRGGFGPGKMDSRGEHRQDRRERPY
3 | – | 81.3 | 1 | PRPRPRPRPRPRPRPRPRPRPRPRPRPRPRPRPRPR (proline:arginine poly-dipeptide from the C9orf72 repeat expansion; source: E. coli BL21(DE3), purified (amylose resin, cation exchange, gel filtration); not shown: MBP, N-terminal, kept) [MBP:PR18 (18 repeats of Pro-Arg)]
